Residue numbers refer to the chain shown, from its start. Like-named read-outs stand apart in the source and are kept apart here.
Legend:
[1] = target: T1, human CX3CR1 (human, UniProt P49238 1-355); assay: cell-based or functional assay
T1 sequence: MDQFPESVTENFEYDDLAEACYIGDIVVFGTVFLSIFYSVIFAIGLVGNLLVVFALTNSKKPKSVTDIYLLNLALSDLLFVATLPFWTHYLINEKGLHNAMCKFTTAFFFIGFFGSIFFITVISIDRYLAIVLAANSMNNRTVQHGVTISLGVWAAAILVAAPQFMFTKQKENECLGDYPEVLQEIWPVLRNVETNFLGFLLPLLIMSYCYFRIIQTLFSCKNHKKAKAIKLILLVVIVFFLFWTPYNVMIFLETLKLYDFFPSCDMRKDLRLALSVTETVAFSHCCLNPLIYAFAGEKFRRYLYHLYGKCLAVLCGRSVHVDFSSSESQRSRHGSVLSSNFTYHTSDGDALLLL

[2] = target: T2, cynomolgus CX3CR1 (cynomolgus, UniProt P49238 1-355 (human entry)); assay: FACS binding, cynomolgus against human CX3CR1
T2 construct: transiently expressed on HEK293T cells; also called cyCX3CR1; cyno CX3CR1
T2 chain: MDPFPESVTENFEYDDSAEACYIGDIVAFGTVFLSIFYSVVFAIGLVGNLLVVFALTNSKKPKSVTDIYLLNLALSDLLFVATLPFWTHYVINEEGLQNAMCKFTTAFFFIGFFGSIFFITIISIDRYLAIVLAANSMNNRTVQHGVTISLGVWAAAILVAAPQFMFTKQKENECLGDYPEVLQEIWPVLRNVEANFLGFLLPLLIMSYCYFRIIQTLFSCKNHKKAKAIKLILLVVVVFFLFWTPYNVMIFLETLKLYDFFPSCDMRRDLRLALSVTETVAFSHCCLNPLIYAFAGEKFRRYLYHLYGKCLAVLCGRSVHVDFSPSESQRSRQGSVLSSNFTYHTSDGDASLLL
Method: (§1) Initially, a FACS based binding setup was used to evaluate the cynomolgus cross reactivity. For this, the VHHs were incubated with the respective cells for 30 minutes at 4° C. followed by three wash steps and subsequently incubated with the detection reagents. As detection, a mouse anti-cmyc antibody (Serotec, MCA2200) followed by a goat anti-mouse antibody coupled to PE (Jackson 115-116-071) was used, each incubation for 30 minutes at 4° C., followed by three wash steps.

[3] = target: T1, human CX3CR1; assay: A647-fractalkine competition FACS, CHO-huCX3CR1
Description: (§2) Periplasmic extracts were screened in a human CX3CR1/human Fractalkine FACS competition assay to assess the blocking capacity of the expressed VHHs. Human CX3CR1 was presented on CHO cells overexpressing CX3CR1. Both a setup using cells harvested from an actively growing culture and a setup using frozen cells was used. As a detection reagent labeled fractalkine was used (R&D Systems, Minneapolis, Minn., USA) labeled with alexa647 (A647-Fractalkine) at a degree of labeling of 1. To setup the assay, first a titration series of the labeled fractalkine was performed on the CHO-huCX3CR1 cells in order to determine the EC50 value for binding. Initially screening was performed at a higher concentration of fractalkine (3 nM) to increase the assay robustness. To increase the sensitivity of the screening to a maximum, the EC30 concentration (1 nM) was chosen for subsequent screening. In brief 50 μl of periplasmic extract was added to 6 nM labeled fractalkine (50 μ;) and 200 000 CHO-huCX3CR1 cells. After one hour incubation at 4 C, cells were washed three times before read out was performed on a FACS Array (Becton Dickinson). First a gate was set on the intact cells as determined from the scatter profile. Next, dead cells were gated out by their fluorescence profile from the PI stain (Sigma, St Louis, US). The fluorescence profile from the alexa647 label was determined for each sample and used for calculation of blocking capacity. As controls, conditions were taken along where there was no VHH present in the peri extract or a known irrelevant VHH and samples were included where excess cold fractalkine was included. For each sample the percentage block was determined using the control samples to determine the assay window.
(§3) The blocking capacity towards the ligand fractalkine of the VHHs was evaluated in a human CX3CR1 competition FACS as outlined in Example 4. Either CHO-huCX3CR1 cells, BA/F3-huCX3CR1 cells or transiently transfected HEK293T cells were used. The amount of labeled ligand used in the different competition setups was also varied. The IC₅₀ values for VHHs blocking the interaction of human fractalkine to human CX3CR1 are depicted in Table 19.

[4] = target: T1, human CX3CR1; assay: A647-fractalkine competition FACS, BA/F3-huCX3CR1
Description: as §2, §3

[5] = target: T1, human CX3CR1; assay: A647-fractalkine competition FACS, HEK293-huCX3CR1
Description: as §2, §3

[6] = target: T1, human CX3CR1; assay: A647-fractalkine competition FACS, HEK293T human CX3CR1
Description: as §2
(§4) For later identified VHHs, a human Fractalkine competition FACS was set up using human or cynomolgus CX3CR1 expressed in HEK293T cells. Both the human and the cynomolgus receptor was transiently transfected in HEK293T cells and transfections were matched by the binding of the labeled ligand, human fractalkine. The competition was evaluated using the EC30 concentration of fractalkine and as such obtained IC50 values are a good estimate of the Ki value, a measure for affinity (Table 22). The experiment was performed as described in Example 4.

[7] = target: T1, human CX3CR1; assay: FACS binding on human CX3CR1 cells, anti-c-myc detection
Method: as §1

[8] = target: T2, cynomolgus CX3CR1; assay: A647-fractalkine competition FACS, HEK293T cynomolgus CX3CR1
Description: as §2, §4

[9] = target: T2, cynomolgus CX3CR1; assay: FACS binding on cynomolgus CX3CR1 cells, anti-c-myc detection
Method: as §1

[10] = target: T2, cynomolgus CX3CR1; assay: A647-fractalkine competition FACS, cynomolgus against human CX3CR1
Description: as §2, §4

[11] = target: T1, human CX3CR1; assay: periplasmic extract, A647-fractalkine competition FACS, CHO-huCX3CR1
In short: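 Periplasmic VHH extracts competed with Alexa647-fractalkine (EC30, 1 nM; 3 nM initially) for binding to live or frozen CHO cells overexpressing human CX3CR1, 1 h at 4 C. FACS read on intact, PI-negative cells; percent block derived using no-VHH, irrelevant-VHH and excess cold fractalkine controls.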

[12] = target: T1, human CX3CR1; assay: cell-based or functional assay; remark: listed apart in the source
[13] = target: T1, human CX3CR1; assay: FACS binding, HEK293T human CX3CR1
[14] = target: T2, cynomolgus CX3CR1; assay: FACS binding, HEK293T cynomolgus CX3CR1
[15] = target: T2, cynomolgus CX3CR1; assay: FACS binding, cynomolgus against human CX3CR1
[16] = target: T1, human CX3CR1; assay: A647-fractalkine competition FACS, CHO-huCX3CR1; remark: listed apart in the source
Description: as §2
The inhibition of ligand binding to human CX3CR1 was investigated for the different formats as described in Example 4. For this characterization the BA/F3-huCX3CR1 cell line was used showing stable expression of the human CX3CR1 receptor. The alexa647 labeled ligand fractalkine was used at its EC30 concentration and thereby obtained IC50 values are reflective of the Ki values.

[17] = target: T1, human CX3CR1; assay: competition FACS, BA/F3-huCX3CR1; competitor alexa647-labeled 66B02
Description: A competitive binding experiment was setup in order to determine whether the VHHs bind overlapping epitopes on CX3CR1. For this, the VHH 66B02 labeled with alexa647 was used in a competition FACS on the BA/F3 cells expressing huCX3CR1. Representative VHHs from the three functional families were used as competitors for the binding of the labeled 66B02.

B1: CX3CR1BIIPMP54A7 (VHH)
VHH: EVQLVESGGGSVQAGESLRLSCAASGTIFSSNAMAWYRQAPGKQRDLVAGINSVDITKYADSVKGRFTISRDNAKNTVYLQMNSLKPEDTAVYYCTSDPRRGWNTRYWGQGTQVTVSS
notes: also called 54A07; not shown: C-terminal c-myc and His6 tags
% block, fractalkine induced chemotaxis [1]: 45% | IC50, fractalkine induced chemotaxis [1]: 50 nM | ratio (cynomolgus/human EC50) [2]: 0.1 | % block [3]: 78% | IC50 [3]: 11 nM | % block [4]: 81% | IC50 [4]: 15 nM | % block [5]: 52% | IC50 [5]: 23 nM | % block [6]: 52% | IC50 [6]: 23 nM | EC50 [7]: 540 nM | % block [8]: 69% | IC50 [8]: 280 nM | EC50 [9]: 30 nM | ratio (cynomolgus/human IC50) [10]: 12.3 | % block [11]: 68.9%

B2: CX3CR1BIIPMP54A12 (VHH)
VHH: B1 VHH with T27S, G50V, D55G, R71G, P99A, N104D
notes: also called CX3CR1BII54A12; not shown: C-terminal c-myc and His6 tags
% block, fractalkine induced chemotaxis [1]: 84% | IC50, fractalkine induced chemotaxis [1]: 80 nM | ratio (cynomolgus/human EC50) [2]: 3.3 | % block [3]: 104% | IC50 [3]: 2.1 nM | % block [4]: 100% | IC50 [4]: 4 nM | % block [5]: 96% | IC50 [5]: 6.8 nM | % block [6]: 96% | IC50 [6]: 6.8 nM | EC50 [7]: 35 nM | % block [8]: 94% | IC50 [8]: 67 nM | EC50 [9]: 110 nM | ratio (cynomolgus/human IC50) [10]: 9.85 | % block [11]: 93.8%

B3: CX3CR1BIIPMP54D5 (VHH)
VHH: EVQLVESGGGSVQAGESLRLSCAASGSIFSSNAMAWYRQAPPGKQRDLVALINSVGITKYADSVKGRFTISSDNAKNTVYLEMNSLKPEDTAVYYCTSDGRRGWDTRYWGQGTQVTVSS
notes: also called 54D05; CX3CR1BII54D5; not shown: C-terminal c-myc and His6 tags
% block, fractalkine induced chemotaxis [1]: 81% | IC50, fractalkine induced chemotaxis [1]: 70 nM | ratio (cynomolgus/human EC50) [2]: 59.6 | % block [3]: 102% | IC50 [3]: 2.7 nM | % block [4]: 99% | IC50 [4]: 5.5 nM | % block [5]: 94% | IC50 [5]: 5.3 nM | % block [6]: 94% | IC50 [6]: 5.3 nM | EC50 [7]: 0.84 nM | % block [8]: 91% | IC50 [8]: 64 nM | EC50 [9]: 50 nM | ratio (cynomolgus/human IC50) [10]: 12.2 | % block [11]: 87.8%

B4: CX3CR1BII007 (VHH)
chain: EVQLVESGGGLVQAGGSLRLSCVASGRTFSSYAMGWFRQAPGKERAFVAGISGSASRKYYADSVKGRFTVSRDNARNTVYLQMNSLKPEDTAVYYCAASNSYPKVQFDYYGQGTQVTVSSGGGGSGGGGSGGGGSGGGGSGGGGSGGGGSGGGGSKVQLVESGGGLVQPGGSLRLSCATSGTIFSNNAMGWYRQAPGKKRDLVASISSSGSTNYADSVKGRFTVSRDNDKNTGYLQMNSLKPEDTGVYYCTLDARRGWNTAYWGQGAQVTVSS
notes: expressed in E. coli as described for the monovalent VHHs (c-myc, His6 tags there)
% block, fractalkine induced chemotaxis [12]: 101% | IC50, fractalkine induced chemotaxis [12]: 4 nM | EC50 [13]: 0.31 nM | EC50 [14]: 48 nM | ratio (cynomolgus/human EC50) [15]: 154 | % block [16]: 100% | IC50 [16]: 0.38 nM

B5: CX3CR1BIIPMP18E6 (VHH)
VHH: KVQLVESGGGLVQPGGSLRLSCATSGTIFSNNAMGWYRQAPGKKRDLVASISSSGSTNYADSVKGRFTVSRDNDKNTGYLQMNSLKPEDTGVYYCTLDARRGWNTAYWGQGAQVTVSS
notes: family 13; also called 18E06; CX3CR1BII18E06; not shown: C-terminal c-myc and His6 tags
% block, fractalkine induced chemotaxis [1]: 17% | ratio (cynomolgus/human EC50) [2]: 9 | % block [3]: 33% | IC50 [3]: 1.8 nM | % block [4]: 71% | IC50 [4]: 2.8 nM | EC50 [7]: 1.5 nM | EC50 [9]: 14 nM | % block [17]: 100% | IC50 [17]: 2.3 nM | % block [11]: 53.1%

Source: US20130224224A1 (Boehringer Ingelheim, published 2013)
